In the supplement of paper PMC9732359:
± gives the uncertainty stated by the source.

Assay: protein stability index of a GFP-peptide fusion (yeast GPS) (PSI 1-4); higher = more stable; sorted into four equal gates, so the index is relative within each strain
Outline: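 For each peptide, the protein stability index sums the read frequency in every gate after multiplying it by the gate number. Read frequencies came from plasmids that were PCR-amplified from each gate and Illumina-sequenced, with reads assigned to strains by barcodes. The gates were four equal bins of GFP/Cherry fluorescence ratio applied to mid-log yeast in leucine-free medium carrying a pooled library of tiled 17-residue yeast protein peptides fused downstream of GFP on a Cherry-expressing plasmid.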

| Sequence | protein stability index (doa10∆) | protein stability index (pdr5∆) | protein stability index (san1∆) | protein stability index (ubr1∆) |
| --- | --- | --- | --- | --- |
| VMEYDVKFYEIFNFDQL [SRB8] | 1.97 ± 0.11 | 1.9 ± 0.12 | 1.66 ± 0.13 | 1.74 ± 0.1 |
| MRNFSKQNQDSKHNERN [YDL088C/ASM4] | 3.01 ± 0.11 | 3.32 ± 0.14 | 2.46 ± 0.09 | 3.34 ± 0.093 |
| LTITKAAGANVDNVWAD [RPP1B] | 2.63 ± 0.089 | 2.26 ± 0.063 | 2.78 ± 0.15 | 2.85 ± 0.059 |
| SGIVASPAVKKLLQLAG [RPS2] | 1.56 ± 0.12 | 1.66 ± 0.14 | – | – |
| RVGGGGTGRSGQGAFGN [RPL4A] | 3.54 ± 0.13 | 3.52 ± 0.11 | 3.54 ± 0.066 | 3.34 ± 0.1 |
| TISQALLNAADRDALSG [PUP3] | 2.82 ± 0.12 | 2.11 ± 0.097 | 1.95 ± 0.17 | 1.95 ± 0.068 |
| VVEKKTVGSSNGGLIHV [RPO21] | 2.97 ± 0.081 | 3.07 ± 0.079 | 2.8 ± 0.053 | 3 ± 0.055 |
| DPVEGNLEFDSTNHPDY [SRP14] | 2.9 ± 0.066 | 2.79 ± 0.068 | 3.09 ± 0.049 | 2.95 ± 0.051 |
| IADLASLEQLLGMMYEQ [YCS4] | 3.18 ± 0.1 | 2.6 ± 0.067 | 2.6 ± 0.074 | 2.65 ± 0.031 |
| GKLLLDEHNELMRQALA [RPO21] | 2.41 ± 0.052 | 2.54 ± 0.086 | 2.02 ± 0.074 | 2.84 ± 0.051 |
| LLKGPASTVAKTAPIQE [YOR098C/NUP1] | 2.52 ± 0.1 | 2.46 ± 0.094 | 1.91 ± 0.18 | 2.87 ± 0.071 |
| YRAFGSIWQVKDQLPDL [MED7] | 3.08 ± 0.13 | 3.17 ± 0.086 | 2.94 ± 0.09 | 3.29 ± 0.083 |
| NNRRRSRKRGGENVFLK [SIR3] | 3.6 ± 0.11 | 3.23 ± 0.084 | 3.07 ± 0.086 | 3.33 ± 0.048 |
| EVLVTPGLEFLDDTTIP [MCD1] | 2.02 ± 0.057 | 2.98 ± 0.059 | 3.25 ± 0.037 | 3.08 ± 0.059 |
| TFVPTNSDKPRDVYVFD [DIS3] | 3 ± 0.062 | 2.93 ± 0.071 | 3.11 ± 0.064 | 3 ± 0.059 |
| TQDVFLKDFNTERVVEI [FAS2] | 3.116 ± 0.026 | 3.205 ± 0.023 | 3.211 ± 0.021 | 3.093 ± 0.019 |
| VQIGAEIILDFLQDKVQ [CSI1] | 3.03 ± 0.085 | 3.07 ± 0.066 | 2.88 ± 0.061 | 3.06 ± 0.047 |
| SSTTGMSYVVRILSTLD [RPT3] | 2.31 ± 0.082 | 2.42 ± 0.084 | 2.49 ± 0.053 | 2.91 ± 0.066 |
| TSCLQNNNQKIDDNYIV [SRB8] | 3.15 ± 0.072 | 3.1 ± 0.081 | 3.33 ± 0.11 | 3.05 ± 0.062 |
| RRLLNLYNDNNKNNNNR [SWI1] | 3.11 ± 0.12 | 2.86 ± 0.089 | 2.22 ± 0.16 | 2.99 ± 0.058 |
| DDESPRFVMPNQLLAAL [RRP6] | 1.98 ± 0.048 | 2.02 ± 0.052 | 1.88 ± 0.069 | 2.18 ± 0.042 |
| KSFANHTEDEQIEKKKI [SIR4] | 2.96 ± 0.14 | 2.28 ± 0.087 | 2.66 ± 0.096 | 2.13 ± 0.048 |
| TDIKDTLTKISMLFKTS [MCD1] | 2.87 ± 0.15 | 2.88 ± 0.27 | 2.37 ± 0.18 | – |
| MAKLNECPLDPGGYFIV [RET1] | 2.87 ± 0.11 | 3.28 ± 0.091 | 2.83 ± 0.086 | 3.23 ± 0.099 |
| NFQISKKMDDYIHRIGR [PRP28] | 3.12 ± 0.24 | – | 3.21 ± 0.13 | – |
| KQFLTKDLKFPLPHRVQ [RPL20A] | 2.67 ± 0.075 | 2.78 ± 0.057 | 2.86 ± 0.057 | 2.78 ± 0.046 |

| Sequence | protein stability index (doa10∆) | protein stability index (pdr5∆) | protein stability index (san1∆) | protein stability index (ubr1∆) |
| --- | --- | --- | --- | --- |
| LVEYGFDPSRIKDLKQR [SMC2] | 2.04 ± 0.049 | 2.57 ± 0.074 | 2.16 ± 0.082 | 2.51 ± 0.064 |
| ANKLSKSHSTVSSSSRH [ISW2] | 2.9 ± 0.066 | 2.63 ± 0.069 | 2.71 ± 0.056 | 2.93 ± 0.037 |
| VNLDNTAVGKAAVVKTS [RPT5] | 3.16 ± 0.064 | 3.12 ± 0.057 | 3.28 ± 0.041 | 3.05 ± 0.039 |
| SPRVEKRSFSSTLKSFF [YOR098C/NUP1] | 1.55 ± 0.067 | 2 ± 0.046 | 2.26 ± 0.078 | 1.92 ± 0.043 |
| IDYHKTAKETKMLMNLH [RPN11] | 2.5 ± 0.061 | 2.45 ± 0.06 | 2.84 ± 0.057 | 2.58 ± 0.055 |
| HELSSSHTSLVKIGKFI [SRB8] | 1.8 ± 0.042 | 2.61 ± 0.033 | 1.84 ± 0.079 | 1.63 ± 0.052 |
| VRIIKHTLDIINVLTDQ [RPS5] | 2.11 ± 0.053 | 2.46 ± 0.059 | 2.62 ± 0.053 | 2.4 ± 0.044 |
| IQEFQGNPYIELNQDRL [SNF5] | 3.13 ± 0.059 | 3.15 ± 0.07 | 3.24 ± 0.06 | 3.23 ± 0.04 |
| VEKTLLSDVAFYVQDVY [RPO31] | 2.11 ± 0.22 | 3.14 ± 0.23 | – | 2.49 ± 0.15 |
| ICSCVNRGVKLEIVYGY [RPP1] | 2.38 ± 0.1 | 2.63 ± 0.063 | 2.43 ± 0.08 | 2 ± 0.049 |
| PLIKKIKYEPRFEKAVK [SMC3] | 2.75 ± 0.072 | 2.72 ± 0.098 | 2.53 ± 0.13 | 2.48 ± 0.079 |
| LIELKSDLLVAPPLENE [YML103C/NUP188] | 2.41 ± 0.046 | 2.18 ± 0.052 | 2.31 ± 0.077 | 2.19 ± 0.05 |
| IQLPASLAATYSMISLQ [ARP9] | 1.73 ± 0.088 | 2.01 ± 0.074 | 2.29 ± 0.1 | 2.19 ± 0.053 |
| VLYHTSGAITFVNETPR [PRP8] | 2.06 ± 0.06 | 2.24 ± 0.075 | 2.43 ± 0.068 | 1.53 ± 0.04 |
| GANPRVLSTFTAEFGKI [RPN10] | 2.14 ± 0.11 | 2.08 ± 0.1 | 2.12 ± 0.2 | 2.18 ± 0.073 |
| NLPKEGDIVLTRVTRLS [CSL4] | 2.58 ± 0.13 | – | 2.48 ± 0.26 | – |
| GKGPGCGFWQPAWRVWL [PRP8] | 2.58 ± 0.19 | – | – | 2.1 ± 0.19 |
| ASGCNVTPIIDGIVVKN [ARP7] | 1.9 ± 0.064 | 2.38 ± 0.063 | 2.25 ± 0.077 | 2.9 ± 0.055 |
| MSDTEAPVEVQEDFEVV [RPS5] | 3.23 ± 0.1 | 3.24 ± 0.15 | 3.35 ± 0.078 | 3.09 ± 0.086 |
| VALTSFLGYKAGMTTIV [RPL3] | 2.96 ± 0.11 | 2.75 ± 0.077 | 2.69 ± 0.078 | 2.85 ± 0.094 |
| TQEQFVKRRRDMLEHIN [SRB4] | – | 2.06 ± 0.27 | – | 1.26 ± 0.089 |
| EKFDLERVTALKNCKIS [SMC1] | 3.44 ± 0.2 | – | 3.38 ± 0.11 | – |
| RVEPETFEIPQAHEIVI [SWI3] | 2.53 ± 0.073 | 2.84 ± 0.08 | 2.54 ± 0.079 | 2.94 ± 0.05 |
| YKLSTVVLRLYLKDNIT [GRR1] | 1.64 ± 0.06 | 1.53 ± 0.051 | 1.36 ± 0.081 | 1.68 ± 0.068 |
| SSGAGTVKLYLPEILNV [ECM29] | 1.45 ± 0.065 | 1.72 ± 0.055 | 2.02 ± 0.075 | 1.47 ± 0.066 |
| TEKQRKKQIAFPQRKYA [RPL35A] | 1.16 ± 0.062 | 1.44 ± 0.096 | 1.13 ± 0.21 | 1.15 ± 0.08 |
